This passage reports EC50 and Kd results from patent US20120244166A1.

What is called EC50 is the concentration at which the effect is half-maximal. For orientation: Kd means the equilibrium constant for the complex coming apart. A low value points to a tighter complex.

For one assay, the target named is Du156.12. Put plainly: ELISA. On the technique in general: ELISA stands for enzyme-linked immunosorbent assay.
Another assay has as its target gp120 (HIV-1 strain YU2) (UniProt P35961). In words: SPR.

1 (Heavy chain: T33Y) displayed an EC50 with Du156.12 of 0.048 µg/mL.

Take 5 (Heavy chain: P62K): the EC50 in the assay with Du156.12 came to 0.066 µg/mL.

As to 7 (Heavy chain: Y74S), in the assay with Du156.12, the EC50 worked out at 0.071 µg/mL.

In the case of b12, the Kd in the assay with gp120 (HIV-1 strain YU2) was determined as 38.1 nM.

Take 9 (Heavy chain: K52N): the EC50 with Du156.12 was 0.056 µg/mL.

Take 3 (Heavy chain: A56G): in the assay with Du156.12, the EC50 amounted to 0.101 µg/mL.

Take 11 (Heavy chain: R61Q): the EC50 with Du156.12 came to 0.086 µg/mL.

4 (Heavy chain: V57T): in the assay with Du156.12, the EC50 amounted to 0.164 µg/mL.

Turning to 6 (Heavy chain: V73T), the EC50 in the assay with Du156.12 stood at 0.097 µg/mL.

On to 12 (Light chain: Y30S), for which, in the assay with Du156.12, the EC50 stood at 0.196 µg/mL.

In the assay with Du156.12, 8 (Heavy chain: I30T) returned an EC50 of 0.063 µg/mL.

In the case of 10 (Heavy chain: R53N), in the assay with Du156.12, the EC50 was found to be 0.063 µg/mL.
